# From patent US20220315908A1, “NOVEL GARDNERELLA ENDOLYSINS AND USES THEREOF” (priority 2019, published 2022)
# Columns and labels:
# [1] = test system: all tested Gardnerella strains; assay: MIC and MBC microbroth dilution, stated over all tested strains; assay type: cell-based; conditions: first round: […]10^7 CFU/ml, 48 h anaerobic (FIG. 14)
# Procedure: One of the main deficiencies in the treatment of BV is the high rate of recurrence in many women, which leads to repeated administration of antibiotics and concomitant destabilization of the microbiome and other side effects. The minimal inhibitory concentration (MIC) and minimal bactericidal concentration (MBC) on Gardnerella cells of the strains also used for the endolysin activity assays were then measured using the method described in Reference Example 6 and 7. […] Essentially, Gardnerella suspensions at 2.5×10^7 CFU/ml were incubated with the concentration of antibiotics as indicated and incubated for 48 h at 37° C. under anaerobic conditions. […] OD(610) was measured at the beginning and the end of the experiment. At the end of the experiment, 2 ul of each reaction mix was spotted on agar to determine the MBC.
# The conditions under which MIC and MBC were measured are more rigorous than the standard.
# Example 7—Activity assays of a representative (H2B10) of domain swapped endolysins on the growth in suspension of different Gardnerella strains. […] The conditions under which MBC was measured are more rigorous than the standard. […] In general, it is known, that antibiotics only insufficiently eradicate the Gardnerella biofilm, a hallmark of BV, which is one suspected reason for the reported very high recurrence rate of BV. Despite leaving residual viable biofilm, antibiotics wipe parts of the beneficial organisms of the vaginal microbiome which then opens an ecological niche for other pathogens, e.g. fungi.
# Bacteria were plated from cryo stock on BD Choc Agar plates (Gardnerella) and incubated at 37° C. for 48 h under anaerobic conditions. Colonies were scraped from the plate, resuspended in Hardy Broth or NYC-III-HS-pH 5.0, and the suspension adjusted to OD (610 or 620 nm as indicated) 0.05. It has to be noted that two Tecan Microplate readers, having respectively a 610 nm or 620 nm filter, have been used interchangeably in the experiments. Although it doesn't make any difference for the experiments, the exact wavelength used is specified in each example. Antibiotics were prepared as 20× stocks for each of the required final concentrations. […] OD (610-620 as indicated) at the start of the reaction was measured, then the plate was incubated at 37° C. for 48 h under anaerobic conditions. After that, the OD (610-620 as indicated) was measured again for MIC determination, where MIC was defined as the lowest concentration of antibiotic where the OD (610-620 as indicated) was not above the level measured at the beginning of the experiment. […] After incubation, cell growth on each spot was evaluated, and the MBC defined as the lowest concentration of antibiotics where no bacteria grew on the plate.
# [2] = test system: G. vaginalis sensu stricto strain Gv_9; assay: Quantitative reduction in viable CFU assay in bacterial suspension; assay type: cell-based, Gardnerella vaginalis sensu stricto; conditions: for median surviving cells after incubation with imidazole: 5×10^7 CFU/ml start, 5 hours 37° C. anaerobic
# Procedure: The lysis activity on the four main species of Gardnerella of 91 constructs (natural and domain-swapped endolysins) was quantitatively assessed using the method described in Reference Example 2. […]
# (§1) The results are shown in FIGS. 8A to 8D together with Tables 5A to 5C. In FIGS. 8A to 8D, the logarithmic Y axis depicts the count of surviving cells. The dotted line indicates the limit of detection (LOD) given by plating of 2 ul of the reaction mix (500 CFU/ml). Each combination of the natural 10 H-domains and the natural 9 B-regions was assessed, including the natural endolysins (H1B1, H2B2, H3B3, etc.), plus H6B6. […] The activity of each construct was measured on each of the 4 main Gardnerella species G. vaginalis sensu stricto, G. leopoldii, G. piotii, and G. swidsinkii. All conditions have been measured in triplicate. The survival after 5 hours incubation at pH 5.0 under anaerobic conditions with endolysins vs. buffer was measured by quantitative plating. The values indicate the log 10 of the ratio of surviving CFU for treated vs. untreated cells. The average of the triplicate measurements is used. In tables 5A and 5B, high negative log 10 values, e.g. −6.7, −5.5, −4.8 etc. are associated with high enzymatic activity, while log 10 values closer to zero or even positive log 10 values are associated with low or no enzymatic activity. […] Inversely, a reduction value of −3.7 means a 10^3.7-fold (=5012-fold) reduction of viable CFU in treated sample vs. untreated control.
# (§2) Gardnerella cells were recovered from cryo stock by plating on Chocolate Agar plates (Beckton Dickinson) and incubating for 48 h at 37° C. under anaerobic conditions. For Lactobacilli, BD Schaedler/5% sheep blood agar plates were used instead. Colonies were scraped from the plate, resuspended in Hardy Broth or NYC-III-HS-5.0 at the pH as indicated, and the suspension adjusted to OD (610 or 620 nm as indicated) 0.1. It has to be noted that two Tecan Microplate readers, having respectively a 610 nm or 620 nm filter, have been used interchangeably in the experiments. Although it doesn't make any difference for the experiments, the exact wavelength used is specified in each example. If not stated otherwise, 90 μl cell suspension was mixed with 10 μl endolysin solution, for the different species/endolysin combinations, in 384-well plates. OD(610-620 nm as indicated) was measured at the beginning of the reaction and at the end, either as two measurement points or as a continuous kinetic in a Tecan F200 Microplate reader. The reactions were incubated for 5 hours (or otherwise the time indicated) at 37° C. under anaerobic, micro-aerophilic or aerobic conditions as indicated. Anaerobic conditions intend that oxygen was fully depleted from the container in which the bacteria are incubated (Sigma-Aldrich anaerobic jar or sealable lunch box) with an anaerobic sachet, and the lack of oxygen was confirmed with an anaerobic indicator inside the container. Where micro-aerophilic conditions are indicated, the candle-in-a-jar method was used (tea candle lit in an appropriate sealable container, which reduces oxygen levels until the flame dies out). Then each well was diluted in 5 steps (10^−1 to 10^−5) using 96-U-well bottom plates, and 2 μl of each dilution of each reaction mix are plated on BD Chocolate agar plates or BD Schaedler/5% sheep blood agar plates for Gardnerella and Lactobacilli, respectively, for detecting and quantifying surviving CFU. Detection plates were incubated at 37° C. for 48 hours under anaerobic conditions.
# [3] = test system: G. swidsinskii strain Gv_23; assay: as above; assay type: cell-based, Gardnerella swidsinskii; conditions: 5 hours, pH 5.0, anaerobic, 10 ul endolysin (0.2 mg/ml where possible) + 90 ul 5e7 CFU/ml, average of triplicate
# Procedure: (§3) The lysis activity on the four main species of Gardnerella of 91 constructs (natural and domain-swapped endolysins) was quantitatively assessed using the method described in Reference Example 2. Briefly, 90 ul 5e7 CFU/ml of the indicated strain were incubated for 5 hours at pH 5.0 under anaerobic conditions with 10 ul endolysin (concentration adjusted to 0.2 mg/ml where possible, see Table 4).
# as §1, §2
# G. piotii strain Gv_17 = assay: as above; assay type: cell-based, Gardnerella piotii; conditions: 5 hours, pH 5.0, anaerobic, 10 ul endolysin (0.2 mg/ml where possible) + 90 ul 5e7 CFU/ml, average of triplicate
# Procedure: as §3, §1, §2
# [4] = test system: four Gardnerella strains (Gv_9, Gv_11, Gv_17, Gv_23); assay: CFU reduction averaged across the four Gardnerella strains, with activity ranks; assay type: cell-based
# Procedure: as §3, §1
# as §2, with “out).” for “out). Then each well was diluted in 5 steps (10^−1 to 10^−5) using 96-U-well bottom plates, and 2 μl of each dilution of each reaction mix are plated on BD Chocolate agar plates or BD Schaedler/5% sheep blood agar plates for Gardnerella and Lactobacilli, respectively, for detecting and quantifying surviving CFU. Detection plates were incubated at 37° C. for 48 hours under anaerobic conditions.”
# [5] = test system: G. leopoldii strain Gv_11; assay: Quantitative reduction in viable CFU assay in bacterial suspension; assay type: cell-based, Gardnerella leopoldii; conditions: 5 hours, pH 5.0, anaerobic, 10 ul endolysin (0.2 mg/ml where possible) + 90 ul 5e7 CFU/ml, average of triplicate
# Procedure: as §3, §1, §2
molecule,measurement,setting,value
CCC[C@@H]1C[C@@H](C(=O)N[C@@H]([C@H]2O[C@H](SC)[C@H](O)[C@@H](O)[C@H]2O)[C@H](C)Cl)N(C)C1 [Clindamycin],MIC over all Gardnerella strains,[1],> 8 µg/mL
c1c[nH]cn1 [imidazole],median surviving cells after incubation with imidazole,[2]; pH 6.0,1×10^6 CFU/ml
same,median surviving cells after incubation with imidazole,[2]; pH 7.0,3×10^4 CFU/ml
"H6B6: natural Gardnerella prophage endolysin from strain 1400E, truncated at the C-terminus (protein, EL6_strain_1400E_frameshift, natural Gardnerella prophage endolysin from strain 1400E, truncated at the C-terminus) MSKKGIDVSVWQGDIDFNAVKASGVEFVIIRAGYGIGCKDKWFEQNYRKAKTCGLDVGAYWYSYANSGFEAAEEAQSCVNMLSGKSFEYPVYFDLEEKSQLNRGRAFCDSLITSFCSKLESCGYYAGFYTSLSTANNLVSAHVRNRYALWIAQWNTHCDYQGSYGLWQYSSSGSVPGVAGRVDMDYAYKNYPSIIKNAGLNGCKNGGSNQAARTSSIDDVAREVINGAWGNGNERKQRLTQAGYDYASVAK",log 10 of the ratio of surviving CFU for treated vs. untreated cells,[3],−0.1 log 10
same,log 10 of the ratio of surviving CFU for treated vs. untreated cells,G. piotii strain Gv_17,−0.2 log 10
same,"killing activity against Gardnerella, in words",[4]; across the Gardnerella strains tested,complete inactivity
same,average of the log 10 activities of each construct across the four Gardnerella strains,"[4]; pH 5.0, 5 hours, anaerobic",0.0 log 10
same,activity rank of all endolysins,"[4]; rank 1-91, based on the data of Table 5B",86
same,log 10 of the ratio of surviving CFU for treated vs. untreated cells,"[2]; Gv_9, 5 hours, pH 5.0, anaerobic, 10 ul endolysin (0.2 mg/ml where possible) + 90 ul 5e7 CFU/ml, average of triplicate",0.1 log 10
same,log 10 of the ratio of surviving CFU for treated vs. untreated cells,[5],0.2 log 10
